Assay results taken from patent EP2848684A1.

Biological target: NifDK complex purified from Azotobacter vinelandii (Azotobacter vinelandii) (UniProt P07328)
Experiment: cell-based or functional assay

Chain of UniProt P07328 (P07328 2-492 limits assumed, chain 1 of 2): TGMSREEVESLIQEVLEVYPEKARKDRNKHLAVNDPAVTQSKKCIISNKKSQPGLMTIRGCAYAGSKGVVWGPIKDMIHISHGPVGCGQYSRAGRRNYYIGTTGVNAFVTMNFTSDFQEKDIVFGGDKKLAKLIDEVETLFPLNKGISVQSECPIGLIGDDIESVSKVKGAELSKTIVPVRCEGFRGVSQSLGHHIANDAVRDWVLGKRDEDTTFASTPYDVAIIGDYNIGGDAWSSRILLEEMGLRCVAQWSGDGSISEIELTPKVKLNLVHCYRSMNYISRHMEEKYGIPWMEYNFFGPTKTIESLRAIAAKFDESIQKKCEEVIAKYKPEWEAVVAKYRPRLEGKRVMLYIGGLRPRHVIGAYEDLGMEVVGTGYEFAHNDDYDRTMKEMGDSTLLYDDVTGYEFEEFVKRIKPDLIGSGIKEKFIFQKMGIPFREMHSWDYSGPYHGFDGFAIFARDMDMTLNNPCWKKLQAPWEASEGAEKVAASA
Chain of UniProt P07328 (P07329 2-523 limits assumed, chain 2 of 2, further chain): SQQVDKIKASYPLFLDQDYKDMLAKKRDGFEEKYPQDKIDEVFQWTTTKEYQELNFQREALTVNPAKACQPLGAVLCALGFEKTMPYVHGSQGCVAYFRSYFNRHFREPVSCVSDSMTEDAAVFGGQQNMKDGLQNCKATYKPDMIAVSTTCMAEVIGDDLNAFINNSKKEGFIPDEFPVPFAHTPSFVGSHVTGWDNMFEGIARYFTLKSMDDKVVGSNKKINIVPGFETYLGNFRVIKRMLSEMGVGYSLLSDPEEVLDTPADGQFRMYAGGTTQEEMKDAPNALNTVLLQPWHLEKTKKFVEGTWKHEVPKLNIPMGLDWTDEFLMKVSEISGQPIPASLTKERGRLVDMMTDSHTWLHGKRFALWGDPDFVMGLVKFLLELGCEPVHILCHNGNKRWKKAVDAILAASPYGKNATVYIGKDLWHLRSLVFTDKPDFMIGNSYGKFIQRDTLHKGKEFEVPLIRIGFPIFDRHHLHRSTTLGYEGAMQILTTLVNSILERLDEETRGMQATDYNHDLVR

| Substance | Ammonia [nmol/mL] | RFU (Relative Fluorescence Units, ammonia detection) [RFU] |
| --- | --- | --- |
| NifH protein purified from Azotobacter vinelandii (from UniProt P00459 2-290) (enzyme) | 179 | 1300 |
| NifH purified from recombinant Saccharomyces cerevisiae GF2 cells (mlsSOD2-his8-NifH, A. vinelandii NifH sequence) (from UniProt P00459 1-290) (enzyme) | 200 | 1460 |
